Assay results as given in the supplement of paper PMC9112550, “Optimization of the antimicrobial peptide Bac7 by deep mutational scanning” (BMC Biology, 2022).

Tested on: Escherichia coli TOP10
Assay: shrunken log2 fold change of peptide-encoding DNA abundance (4.5 h post-induction vs induction); higher = less antimicrobial activity (less host growth inhibition)
Settings: time post-induction: 4.5 h; library: site-saturation at positions 5, 18, 19, 20
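Also: peptides expressed intracellularly from a pBAD plasmid library in pooled LB shake-flask culture, induced with 0.3% L-arabinose, DNA abundance read by NGS, three biological replicates, DESeq2 with apeglm shrinkage.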

Row | Sequence | shrunken log2 fold change
1 | RRIRMRPPRLPRPRPRPEYVPRP | 0.16
2 | RRIRMRPPRLPRPRPRPFANPRP | -0.0062
3 | RRIRMRPPRLPRPRPRPFASPRP | 0.0812
4 | RRIRMRPPRLPRPRPRPFCEPRP | 0.148
5 | RRIRMRPPRLPRPRPRPFCYPRP | -0.117
6 | RRIRMRPPRLPRPRPRPFDFPRP | 0.0495
7 | RRIRMRPPRLPRPRPRPFDKPRP | -0.0136
8 | RRIRMRPPRLPRPRPRPFGKPRP | 0.129
9 | RRIRMRPPRLPRPRPRPFHHPRP | -0.419
10 | RRIRMRPPRLPRPRPRPFHYPRP | -0.63
11 | RRIRMRPPRLPRPRPRPFINPRP | -0.278
12 | RRIRMRPPRLPRPRPRPFKAPRP | -0.114
13 | RRIRMRPPRLPRPRPRPFKWPRP | -0.0704
14 | RRIRMRPPRLPRPRPRPFLHPRP | -0.0137
15 | RRIRMRPPRLPRPRPRPFLMPRP | -0.0208
16 | RRIRMRPPRLPRPRPRPFPCPRP | -0.0872
17 | RRIRMRPPRLPRPRPRPFQPPRP | 0.0604
18 | RRIRMRPPRLPRPRPRPFRIPRP | 0.0254
19 | RRIRMRPPRLPRPRPRPFRYPRP | 0.0191
20 | RRIRMRPPRLPRPRPRPFSQPRP | -0.0398
21 | RRIRMRPPRLPRPRPRPFTQPRP | 0.215
22 | RRIRMRPPRLPRPRPRPFTTPRP | -0.0216

Row | Sequence | shrunken log2 fold change
23 | RRIRMRPPRLPRPRPRPFYGPRP | 0.0715
24 | RRIRMRPPRLPRPRPRPGDWPRP | 1.33
25 | RRIRMRPPRLPRPRPRPGDYPRP | 0.0762
26 | RRIRMRPPRLPRPRPRPGEKPRP | 0.00581
27 | RRIRMRPPRLPRPRPRPGESPRP | 1.29
28 | RRIRMRPPRLPRPRPRPGFPPRP | 0.446
29 | RRIRMRPPRLPRPRPRPGHGPRP | 0.32
30 | RRIRMRPPRLPRPRPRPGISPRP | 0.0451
31 | RRIRMRPPRLPRPRPRPGKVPRP | 0.101
32 | RRIRMRPPRLPRPRPRPGLGPRP | 0.914
33 | RRIRMRPPRLPRPRPRPGQMPRP | 0.123
34 | RRIRMRPPRLPRPRPRPGQWPRP | 0.204
35 | RRIRMRPPRLPRPRPRPGSEPRP | 0.952
36 | RRIRMRPPRLPRPRPRPGSGPRP | 1.34
37 | RRIRMRPPRLPRPRPRPGYSPRP | -0.185
38 | RRIRMRPPRLPRPRPRPGYVPRP | -0.118
39 | RRIRMRPPRLPRPRPRPHANPRP | 0.0143
40 | RRIRMRPPRLPRPRPRPHASPRP | 0.116
41 | RRIRMRPPRLPRPRPRPHATPRP | 2.78
42 | RRIRMRPPRLPRPRPRPHDIPRP | -0.104
43 | RRIRMRPPRLPRPRPRPHFGPRP | 0.0712
44 | RRIRMRPPRLPRPRPRPHFQPRP | 0.22

Row | Sequence | shrunken log2 fold change
45 | RRIRMRPPRLPRPRPRPHGDPRP | -0.0284
46 | RRIRMRPPRLPRPRPRPHHMPRP | -0.321
47 | RRIRMRPPRLPRPRPRPHIEPRP | -0.0375
48 | RRIRMRPPRLPRPRPRPHIHPRP | -0.111
49 | RRIRMRPPRLPRPRPRPHIMPRP | -0.422
50 | RRIRMRPPRLPRPRPRPHISPRP | -0.0571
51 | RRIRMRPPRLPRPRPRPHMCPRP | 0.000241
52 | RRIRMRPPRLPRPRPRPHMIPRP | -0.159
53 | RRIRMRPPRLPRPRPRPHNFPRP | -0.0303
54 | RRIRMRPPRLPRPRPRPHNHPRP | -0.239
55 | RRIRMRPPRLPRPRPRPHNKPRP | -0.305
56 | RRIRMRPPRLPRPRPRPHPVPRP | 0.0384
57 | RRIRMRPPRLPRPRPRPHPYPRP | 0.168
58 | RRIRMRPPRLPRPRPRPHQDPRP | -0.117
59 | RRIRMRPPRLPRPRPRPHQIPRP | -0.00201
60 | RRIRMRPPRLPRPRPRPHRKPRP | 0.0879
61 | RRIRMRPPRLPRPRPRPHRTPRP | -0.177
62 | RRIRMRPPRLPRPRPRPHRWPRP | 0.478
63 | RRIRMRPPRLPRPRPRPHTYPRP | -0.209
64 | RRIRMRPPRLPRPRPRPHWVPRP | -0.0142
65 | RRIRMRPPRLPRPRPRPHYAPRP | -0.128
66 | RRIRMRPPRLPRPRPRPHYIPRP | -0.335

Row | Sequence | shrunken log2 fold change
67 | RRIRMRPPRLPRPRPRPIAEPRP | 3.46
68 | RRIRMRPPRLPRPRPRPIAHPRP | -0.0202
69 | RRIRMRPPRLPRPRPRPIFNPRP | -0.257
70 | RRIRMRPPRLPRPRPRPIGKPRP | 0.208
71 | RRIRMRPPRLPRPRPRPIIHPRP | -0.136
72 | RRIRMRPPRLPRPRPRPILWPRP | 0.00288
73 | RRIRMRPPRLPRPRPRPIMDPRP | -0.133
74 | RRIRMRPPRLPRPRPRPIMMPRP | -0.00663
75 | RRIRMRPPRLPRPRPRPINQPRP | 0.257
76 | RRIRMRPPRLPRPRPRPIPTPRP | 0.0467
77 | RRIRMRPPRLPRPRPRPIPWPRP | -0.033
78 | RRIRMRPPRLPRPRPRPIPYPRP | 0.013
79 | RRIRMRPPRLPRPRPRPIQFPRP | -0.318
80 | RRIRMRPPRLPRPRPRPIQQPRP | -0.0206
81 | RRIRMRPPRLPRPRPRPIRKPRP | 0.553
82 | RRIRMRPPRLPRPRPRPIRMPRP | 0.213
83 | RRIRMRPPRLPRPRPRPISNPRP | -0.0517
84 | RRIRMRPPRLPRPRPRPITFPRP | 0.0589
85 | RRIRMRPPRLPRPRPRPITPPRP | 0.0378
86 | RRIRMRPPRLPRPRPRPIVNPRP | -0.0202
87 | RRIRMRPPRLPRPRPRPIWPPRP | 0.769
88 | RRIRMRPPRLPRPRPRPIWYPRP | -0.158

Row | Sequence | shrunken log2 fold change
89 | RRIRMRPPRLPRPRPRPKAQPRP | 1.72
90 | RRIRMRPPRLPRPRPRPKCIPRP | -0.113
91 | RRIRMRPPRLPRPRPRPKDVPRP | -0.000921
92 | RRIRMRPPRLPRPRPRPKFNPRP | -0.111
93 | RRIRMRPPRLPRPRPRPKGKPRP | 0.288
94 | RRIRMRPPRLPRPRPRPKGNPRP | 0.0272
95 | RRIRMRPPRLPRPRPRPKHYPRP | -0.0523
96 | RRIRMRPPRLPRPRPRPKIHPRP | -0.0387
97 | RRIRMRPPRLPRPRPRPKNRPRP | 0.375
98 | RRIRMRPPRLPRPRPRPKPDPRP | 1.13
99 | RRIRMRPPRLPRPRPRPKPFPRP | 0.236
100 | RRIRMRPPRLPRPRPRPKQIPRP | 0.371
101 | RRIRMRPPRLPRPRPRPKREPRP | 0.055
102 | RRIRMRPPRLPRPRPRPKRWPRP | 1.51
103 | RRIRMRPPRLPRPRPRPKSQPRP | 2.06
104 | RRIRMRPPRLPRPRPRPKSTPRP | 1.44
105 | RRIRMRPPRLPRPRPRPKTFPRP | 0.0371
106 | RRIRMRPPRLPRPRPRPKVAPRP | -0.0166
107 | RRIRMRPPRLPRPRPRPKVDPRP | -0.0311
108 | RRIRMRPPRLPRPRPRPKVNPRP | 0.31
109 | RRIRMRPPRLPRPRPRPKWCPRP | 0.0391
